According to article PMC4650548:

Molecular target: NBS1 (UniProt O60934)
Assay: biotin-peptide streptavidin pull-down from lysate

binding against the reference (reference: SDpTE peptide, sites S915): gained | binding against the reference (reference: pSDTE peptide, sites T917): gained
Substance: PHRF1 908-924 (from UniProt Q9P1Y6) pSDpTE peptide
